Test results taken from the supplement of paper PMC10201428.
± gives the standard deviation of the averaged measurements.

What was measured:
[1] = system: VchCAST RNA-guided transposition machinery (E. coli BL21(DE3) host, lacZ target); test: relative integration efficiency (T-RL orientation) vs wild-type transposon end (log2 (normalized fold change)); transposon end mutated: right end (5 bp flank + 75 bp right end); higher = more efficient transposition
Method in brief: (§1)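 Each barcoded pool, 1549 left-end or 1849 right-end transposon variants in a pUC57 mini-transposon donor, went into E. coli BL21(DE3) with a T7-driven effector plasmid (CRISPR array, tniQ-cas8-cas7-cas6, tnsA-tnsB-tnsC). Plates contained 0.1 mM IPTG and were held at 37°C for 18 h. Input plasmids and genomic integration junctions were PCR-amplified and read by Illumina sequencing, with two biological output replicates and four reference barcodes. Relative integration efficiency is the fold change of output over input barcode abundance, normalised to the reference barcodes and log-transformed.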

[2] = system: VchCAST RNA-guided transposition machinery (E. coli BL21(DE3) host, lacZ target); test: relative integration efficiency (T-LR orientation) vs wild-type transposon end (log2 (normalized fold change)); transposon end mutated: right end (5 bp flank + 75 bp right end); higher = more efficient transposition
Method in brief: as §1

ACATTTGTTGATACAACCATAAAATGATAATTACACCCATAAATTGATAATTATCACACCCATAAATTGATATTGCCTGAGATCATAGTCAGACCAACATTGCTACGACCCGTATTCGCACCGACAC
relative integration efficiency (log2) [1]: 0.0616 ± 0.0024 | relative integration efficiency (log2) [2]: 0.172 ± 0.11

ACATTTGTTGATACAACCATAAAATGATAATTACACCCATAAATTGATAATTATCACACCCATAAATTGATATTGCGACTGATCATAGTCAGACCAACATTGCTACGACCCGTATTCGCACCGACAC
relative integration efficiency (log2) [1]: -0.0819 ± 0.0067 | relative integration efficiency (log2) [2]: -0.0636 ± 0.17

ACATTTGTTGATACAACCATAAAATGATAATTACACCCATAAATTGATAATTATCACACCCATAAATTGATATTGCGAGAGATCATAGTCAGACCAACATTGCTACGACCCGTATTCGCACCGACAC
relative integration efficiency (log2) [1]: -0.286 ± 0.11 | relative integration efficiency (log2) [2]: -0.165 ± 0.12

ACATTTGTTGATACAACCATAAAATGATAATTACACCCATAAATTGATAATTATCACACCCATAAATTGATATTGCTCTGATCATAGTCAGACCAACATTGCTACGACCCGTATTCGCACCGACACT
relative integration efficiency (log2) [1]: 0.126 ± 0.019 | relative integration efficiency (log2) [2]: -0.11 ± 0.21

ACATTTGTTGATACAACCATAAAATGATAATTACACCCATAAATTGATAATTATCACACCCATAAATTGATATTGCTTATGATCATAGTCAGACCAACATTGCTACGACCCGTATTCGCACCGACAC
relative integration efficiency (log2) [1]: 0.0482 ± 0.094 | relative integration efficiency (log2) [2]: -0.462 ± 0.31

ACATTTGTTGATACAACCATAAAATGATAATTACACCCATAAATTGATAATTATCACACCCATAAATTGATATTGGGAGTGATCATAGTCAGACCAACATTGCTACGACCCGTATTCGCACCGACAC
relative integration efficiency (log2) [1]: -0.111 ± 0.04 | relative integration efficiency (log2) [2]: 0.108 ± 0.15

ACATTTGTTGATACAACCATAAAATGATAATTACACCCATAAATTGATAATTATCACACCCATAAATTGATATTTAAGAGGATCATAGTCAGACCAACATTGCTACGACCCGTATTCGCACCGACAC
relative integration efficiency (log2) [1]: 0.179 ± 0.034 | relative integration efficiency (log2) [2]: 0.08 ± 0.011

ACATTTGTTGATACAACCATAAAATGATAATTACACCCATAAATTGATAATTATCACACCCATAAATTGATATTTAAGCTGATCATAGTCAGACCAACATTGCTACGACCCGTATTCGCACCGACAC
relative integration efficiency (log2) [1]: -0.000531 ± 0.0027 | relative integration efficiency (log2) [2]: -0.0384 ± 0.075

ACATTTGTTGATACAACCATAAAATGATAATTACACCCATAAATTGATAATTATCACACCCATAAATTGATCGGTAAGAGGATCATAGTCAGACCAACATTGCTACGACCCGTATTCGCACCGACAC
relative integration efficiency (log2) [1]: -0.421 ± 0.075 | relative integration efficiency (log2) [2]: 1.33 ± 0.2

ACATTTGTTGATACAACCATAAAATGATAATTACACCCATAAATTGATAATTATCACACCCATAAATTGATCTCTGATCATAGTCAGACCAACATTGCTACGACCCGTATTCGCACCGACACTGACT
relative integration efficiency (log2) [1]: -0.209 ± 0.021 | relative integration efficiency (log2) [2]: 0.731 ± 0.26

ACATTTGTTGATACAACCATAAAATGATAATTACACCCATAAATTGATAATTATCACACCCATAAATTGCGCGGTAAGAGGATCATAGTCAGACCAACATTGCTACGACCCGTATTCGCACCGACAC
relative integration efficiency (log2) [1]: -0.4 ± 0.022 | relative integration efficiency (log2) [2]: 2.18 ± 0.12

ACATTTGTTGATACAACCATAAAATGATAATTACACCCATAAATTGATAATTATCACACCCATAAATTTCGCGGTAAGAGGATCATAGTCAGACCAACATTGCTACGACCCGTATTCGCACCGACAC
relative integration efficiency (log2) [1]: -0.719 ± 0.14 | relative integration efficiency (log2) [2]: 2.22 ± 0.05

ACATTTGTTGATACAACCATAAAATGATAATTACACCCATAAATTGATAATTATCACACCCATAACGGTCGCGGTAAGAGGATCATAGTCAGACCAACATTGCTACGACCCGTATTCGCACCGACAC
relative integration efficiency (log2) [1]: -0.752 ± 0.12 | relative integration efficiency (log2) [2]: 2.14 ± 0.13

ACATTTGTTGATACAACCATAAAATGATAATTACACCCATAAATTGATAATTATCACACCCATACCGGTCGCGGTAAGAGGATCATAGTCAGACCAACATTGCTACGACCCGTATTCGCACCGACAC
relative integration efficiency (log2) [1]: -0.58 ± 0.031 | relative integration efficiency (log2) [2]: 2.44 ± 0.13

ACATTTGTTGATACAACCATAAAATGATAATTACACCCATAAATTGATAATTATCACACCCATCCCGGTCGCGGTAAGAGGATCATAGTCAGACCAACATTGCTACGACCCGTATTCGCACCGACAC
relative integration efficiency (log2) [1]: -0.648 ± 0.11 | relative integration efficiency (log2) [2]: 2.36 ± 0.21

ACATTTGTTGATACAACCATAAAATGATAATTACACCCATAAATTGATAATTATCACACCCCGCCCGGTCGCGGTAAGAGGATCATAGTCAGACCAACATTGCTACGACCCGTATTCGCACCGACAC
relative integration efficiency (log2) [1]: -0.532 ± 0.054 | relative integration efficiency (log2) [2]: 2.47 ± 0.19

ACATTTGTTGATACAACCATAAAATGATAATTACACCCATAAATTGATAATTATCACACCGTATAATTGATATTGCCTCTGATCATAGTCAGACCAACATTGCTACGACCCGTATTCGCACCGACAC
relative integration efficiency (log2) [1]: -0.648 ± 0.21 | relative integration efficiency (log2) [2]: 2.25 ± 0.06
